Data from the supplement of paper PMC9112550, “Optimization of the antimicrobial peptide Bac7 by deep mutational scanning” (BMC Biology, 2022).

Test system: Escherichia coli TOP10
Experiment: shrunken log2 fold change of peptide-encoding DNA abundance (4.5 h post-induction vs induction); higher = less antimicrobial activity (less host growth inhibition)
Conditions: time post-induction: 4.5 h; library: site-saturation at positions 5, 18, 19, 20
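Note: peptides expressed intracellularly from a pBAD plasmid library in pooled LB shake-flask culture, induced with 0.3% L-arabinose, DNA abundance read by NGS, three biological replicates, DESeq2 with apeglm shrinkage.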

Sequence	shrunken log2 fold change
RRIRQRPPRLPRPRPRPENLPRP	-0.0164
RRIRQRPPRLPRPRPRPESCPRP	-0.0209
RRIRQRPPRLPRPRPRPESRPRP	-0.00904
RRIRQRPPRLPRPRPRPESSPRP	-0.0458
RRIRQRPPRLPRPRPRPETDPRP	-0.167
RRIRQRPPRLPRPRPRPETTPRP	0.0178
RRIRQRPPRLPRPRPRPEVDPRP	0.0316
RRIRQRPPRLPRPRPRPEVLPRP	0.0411
RRIRQRPPRLPRPRPRPEVSPRP	0.116
RRIRQRPPRLPRPRPRPEWNPRP	-0.175
RRIRQRPPRLPRPRPRPEYYPRP	-0.306
RRIRQRPPRLPRPRPRPFALPRP	-0.103
RRIRQRPPRLPRPRPRPFAQPRP	-0.0906
RRIRQRPPRLPRPRPRPFFCPRP	0.111
RRIRQRPPRLPRPRPRPFGFPRP	-0.233
RRIRQRPPRLPRPRPRPFGQPRP	-0.0598
RRIRQRPPRLPRPRPRPFGYPRP	-0.148
RRIRQRPPRLPRPRPRPFHPPRP	-0.197
RRIRQRPPRLPRPRPRPFIPPRP	-0.395
RRIRQRPPRLPRPRPRPFIWPRP	-0.357
RRIRQRPPRLPRPRPRPFKEPRP	0.343
RRIRQRPPRLPRPRPRPFMHPRP	-0.0117
RRIRQRPPRLPRPRPRPFPGPRP	0.115
RRIRQRPPRLPRPRPRPFQHPRP	-0.117
RRIRQRPPRLPRPRPRPFREPRP	-0.0101

Sequence	shrunken log2 fold change
RRIRQRPPRLPRPRPRPFRLPRP	-0.00192
RRIRQRPPRLPRPRPRPFRQPRP	-0.148
RRIRQRPPRLPRPRPRPFSDPRP	-0.00196
RRIRQRPPRLPRPRPRPFTPPRP	-0.388
RRIRQRPPRLPRPRPRPFVAPRP	0.0106
RRIRQRPPRLPRPRPRPFYFPRP	-0.697
RRIRQRPPRLPRPRPRPFYSPRP	-0.174
RRIRQRPPRLPRPRPRPFYVPRP	-0.484
RRIRQRPPRLPRPRPRPGCHPRP	-0.11
RRIRQRPPRLPRPRPRPGCNPRP	-0.0136
RRIRQRPPRLPRPRPRPGCVPRP	0.269
RRIRQRPPRLPRPRPRPGDEPRP	0.021
RRIRQRPPRLPRPRPRPGDKPRP	-0.187
RRIRQRPPRLPRPRPRPGDWPRP	0.866
RRIRQRPPRLPRPRPRPGDYPRP	-0.17
RRIRQRPPRLPRPRPRPGEDPRP	-0.0999
RRIRQRPPRLPRPRPRPGFAPRP	0.249
RRIRQRPPRLPRPRPRPGFQPRP	0.00598
RRIRQRPPRLPRPRPRPGGKPRP	-0.0313
RRIRQRPPRLPRPRPRPGHRPRP	0.0349
RRIRQRPPRLPRPRPRPGIMPRP	-0.0424
RRIRQRPPRLPRPRPRPGKKPRP	0.0943
RRIRQRPPRLPRPRPRPGKSPRP	-0.103
RRIRQRPPRLPRPRPRPGLCPRP	-0.0449
RRIRQRPPRLPRPRPRPGLWPRP	0.452

Sequence	shrunken log2 fold change
RRIRQRPPRLPRPRPRPGMIPRP	-0.446
RRIRQRPPRLPRPRPRPGRCPRP	0.321
RRIRQRPPRLPRPRPRPGSMPRP	-0.174
RRIRQRPPRLPRPRPRPGSSPRP	-0.172
RRIRQRPPRLPRPRPRPGVYPRP	0.0572
RRIRQRPPRLPRPRPRPGWCPRP	0.0842
RRIRQRPPRLPRPRPRPGWPPRP	0.514
RRIRQRPPRLPRPRPRPGYHPRP	-0.108
RRIRQRPPRLPRPRPRPGYPPRP	-0.181
RRIRQRPPRLPRPRPRPHAFPRP	-0.0738
RRIRQRPPRLPRPRPRPHALPRP	-0.6
RRIRQRPPRLPRPRPRPHASPRP	-0.00783
RRIRQRPPRLPRPRPRPHCTPRP	0.157
RRIRQRPPRLPRPRPRPHDWPRP	-0.372
RRIRQRPPRLPRPRPRPHFFPRP	-0.0162
RRIRQRPPRLPRPRPRPHGKPRP	-0.352
RRIRQRPPRLPRPRPRPHGTPRP	-0.0865
RRIRQRPPRLPRPRPRPHHCPRP	-0.652
RRIRQRPPRLPRPRPRPHHKPRP	-0.205
RRIRQRPPRLPRPRPRPHIIPRP	-0.362
RRIRQRPPRLPRPRPRPHITPRP	-1.1
RRIRQRPPRLPRPRPRPHKGPRP	-0.214
RRIRQRPPRLPRPRPRPHKNPRP	-0.194
RRIRQRPPRLPRPRPRPHLKPRP	-0.0175
RRIRQRPPRLPRPRPRPHLSPRP	-0.00594

Sequence	shrunken log2 fold change
RRIRQRPPRLPRPRPRPHMSPRP	-0.28
RRIRQRPPRLPRPRPRPHNAPRP	-0.0184
RRIRQRPPRLPRPRPRPHNHPRP	-0.811
RRIRQRPPRLPRPRPRPHNVPRP	-0.0684
RRIRQRPPRLPRPRPRPHPSPRP	-0.462
RRIRQRPPRLPRPRPRPHQDPRP	-0.327
RRIRQRPPRLPRPRPRPHQKPRP	-0.0904
RRIRQRPPRLPRPRPRPHQRPRP	0.153
RRIRQRPPRLPRPRPRPHRCPRP	0.109
RRIRQRPPRLPRPRPRPHVIPRP	-0.186
RRIRQRPPRLPRPRPRPHVPPRP	-0.0247
RRIRQRPPRLPRPRPRPHWMPRP	-0.0751
RRIRQRPPRLPRPRPRPHWTPRP	-0.0125
RRIRQRPPRLPRPRPRPHYRPRP	-0.0839
RRIRQRPPRLPRPRPRPIAGPRP	0.139
RRIRQRPPRLPRPRPRPICWPRP	0.0153
RRIRQRPPRLPRPRPRPICYPRP	0.0933
RRIRQRPPRLPRPRPRPIDCPRP	0.0167
RRIRQRPPRLPRPRPRPIDWPRP	1.59e-05
RRIRQRPPRLPRPRPRPIFRPRP	0.0716
RRIRQRPPRLPRPRPRPIFWPRP	0.142
RRIRQRPPRLPRPRPRPIIPPRP	-0.904
RRIRQRPPRLPRPRPRPINAPRP	-0.116
RRIRQRPPRLPRPRPRPINRPRP	-0.341
RRIRQRPPRLPRPRPRPINWPRP	-0.0302

Sequence	shrunken log2 fold change
RRIRQRPPRLPRPRPRPINYPRP	-0.0444
RRIRQRPPRLPRPRPRPIPRPRP	0.145
RRIRQRPPRLPRPRPRPIQEPRP	-0.142
RRIRQRPPRLPRPRPRPIREPRP	-0.0225
RRIRQRPPRLPRPRPRPIRHPRP	-0.182
RRIRQRPPRLPRPRPRPIRWPRP	-0.0554
RRIRQRPPRLPRPRPRPISQPRP	0.0474
RRIRQRPPRLPRPRPRPITHPRP	-0.102
RRIRQRPPRLPRPRPRPIWFPRP	-0.000433
RRIRQRPPRLPRPRPRPIYKPRP	-0.12
RRIRQRPPRLPRPRPRPIYPPRP	-0.121
RRIRQRPPRLPRPRPRPKAEPRP	0.45
RRIRQRPPRLPRPRPRPKAWPRP	-0.0334
RRIRQRPPRLPRPRPRPKCSPRP	-0.0276
RRIRQRPPRLPRPRPRPKEGPRP	-0.0167
RRIRQRPPRLPRPRPRPKEQPRP	-0.0394
RRIRQRPPRLPRPRPRPKFHPRP	-0.0648
RRIRQRPPRLPRPRPRPKGGPRP	0.0347
RRIRQRPPRLPRPRPRPKKVPRP	-0.0514
RRIRQRPPRLPRPRPRPKLMPRP	-0.082
RRIRQRPPRLPRPRPRPKLQPRP	1.59
RRIRQRPPRLPRPRPRPKLVPRP	-0.0518
RRIRQRPPRLPRPRPRPKMRPRP	0.0141
RRIRQRPPRLPRPRPRPKPPPRP	0.27
RRIRQRPPRLPRPRPRPKSFPRP	0.0406

Sequence	shrunken log2 fold change
RRIRQRPPRLPRPRPRPKTCPRP	-0.0119
RRIRQRPPRLPRPRPRPKTHPRP	-0.389
RRIRQRPPRLPRPRPRPKVCPRP	-0.193
RRIRQRPPRLPRPRPRPKVLPRP	0.0378
RRIRQRPPRLPRPRPRPKYNPRP	-0.879
RRIRQRPPRLPRPRPRPLCCPRP	-0.382
RRIRQRPPRLPRPRPRPLDDPRP	-0.0837
RRIRQRPPRLPRPRPRPLDRPRP	0.0981
RRIRQRPPRLPRPRPRPLHNPRP	0.00263
RRIRQRPPRLPRPRPRPLKAPRP	-0.253
RRIRQRPPRLPRPRPRPLKCPRP	-0.139
RRIRQRPPRLPRPRPRPLKDPRP	-0.164
RRIRQRPPRLPRPRPRPLKHPRP	-0.589
RRIRQRPPRLPRPRPRPLKLPRP	-0.017
RRIRQRPPRLPRPRPRPLLAPRP	0.328
RRIRQRPPRLPRPRPRPLLCPRP	0.126
RRIRQRPPRLPRPRPRPLLWPRP	0.091
RRIRQRPPRLPRPRPRPLMGPRP	-0.121
RRIRQRPPRLPRPRPRPLPCPRP	-0.00831
RRIRQRPPRLPRPRPRPLQKPRP	-0.0062
RRIRQRPPRLPRPRPRPLQNPRP	0.139
RRIRQRPPRLPRPRPRPLSGPRP	-0.252
RRIRQRPPRLPRPRPRPLSSPRP	-0.055
RRIRQRPPRLPRPRPRPLTNPRP	-0.483
RRIRQRPPRLPRPRPRPLTSPRP	-0.254
